The target in experiment [1] is Fc-tagged human ACE2 (human) (UniProt Q9BYF1). Briefly: BLI. For orientation: In BLI a coated tip is dipped into the sample, and binding shifts an interference pattern.
Experiment [2] addresses variant S-trimer (prefusion-stabilized SARS-CoV-2 spike trimer, S-6P backbone, with K417N, E484K, N501Y and D614G) (SARS-CoV-2 | bacteriophage T4). The experiment in a line: SEC. (In general: In gel filtration, larger molecules generally elute earlier.)

Experimental findings from paper PMC9653380 are described below.

Usually Kd stands for a measure of binding affinity in units of concentration. Low values mean tighter binding, high ones weaker binding. As a reminder, the stoichiometry N is a count of units in the complex or per binding partner.

“variant S-trimer (prefusion-stabilized SARS-CoV-2 spike trimer, S-6P backbone, with K417N, E484K, N501Y and D614G)”: the dissociation constant Kd in experiment [1] was 9.14 nM. Further, the stoichiometry N in experiment [2] came to 3.
